The values below come from PMC3210380.

The term Kd denotes the concentration at which binding is half-saturated. Low values mean tighter binding, high ones weaker binding.

The target of one data set is T1, Aptx full-length WT (Schizosaccharomyces pombe, UniProt O74859 1-232).
T1 sequence: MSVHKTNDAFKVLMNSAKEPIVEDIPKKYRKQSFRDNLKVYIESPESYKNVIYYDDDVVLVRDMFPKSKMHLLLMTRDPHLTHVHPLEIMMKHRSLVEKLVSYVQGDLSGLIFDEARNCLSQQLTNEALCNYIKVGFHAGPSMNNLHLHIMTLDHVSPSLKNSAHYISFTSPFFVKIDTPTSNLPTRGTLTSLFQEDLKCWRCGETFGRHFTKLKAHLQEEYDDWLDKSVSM
Description: fluorescence polarization. A general note: In fluorescence polarisation assays a small probe gives low polarisation when free and higher when bound to something large.

Another data set deals with T2, Aptx F65A (Schizosaccharomyces pombe, UniProt O74859 1-232, F65A).
T2 sequence: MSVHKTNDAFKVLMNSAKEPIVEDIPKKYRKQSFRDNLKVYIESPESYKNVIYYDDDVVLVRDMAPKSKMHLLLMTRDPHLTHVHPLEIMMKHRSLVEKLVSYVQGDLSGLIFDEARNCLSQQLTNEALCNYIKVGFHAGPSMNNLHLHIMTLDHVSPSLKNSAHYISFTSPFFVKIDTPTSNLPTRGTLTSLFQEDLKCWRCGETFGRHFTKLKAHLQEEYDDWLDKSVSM
The data set is described as follows: fluorescence polarization.

Data set [1] deals with T3, Aptxcat (HIT-Znf catalytic core) (Schizosaccharomyces pombe, UniProt O74859 30-232).
T3 sequence: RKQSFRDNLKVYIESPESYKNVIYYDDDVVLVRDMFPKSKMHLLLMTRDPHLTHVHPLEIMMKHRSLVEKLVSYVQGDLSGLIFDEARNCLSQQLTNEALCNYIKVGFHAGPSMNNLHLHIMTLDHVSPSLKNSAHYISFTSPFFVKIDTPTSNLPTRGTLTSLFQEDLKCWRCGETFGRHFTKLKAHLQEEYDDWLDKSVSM
The data set is described as follows: X-ray crystallography.

Consider CAGAGTCATAATATGCAGGTGCAGGTTATTCATGCTCGG (ssDNA) [39-mer ssDNA], for which the Kd with Aptx full-length WT turned out to be 330 nM.

B1: SSB 39-mer (1-nt gap, 3'- and 5'-phosphates) (dsDNA)
DNA 1: CCGAGCATGAATAACCTGCACCTGCATATTATGACTCTG
DNA 2: CAGAGTCATAATATGCAGG
DNA 3: GCAGGTTATTCATGCTCGG
modifications: 3'-phosphate on S5; 5'-phosphate on S6
With B1, the equilibrium dissociation constant (Kd) with Aptx F65A was found to be 250 nM; in the data set with Aptx full-length WT, 80 nM.

B2: 39-mer dsDNA (dsDNA)
DNA 1: CAGAGTCATAATATGCAGGTGCAGGTTATTCATGCTCGG
DNA 2: CCGAGCATGAATAACCTGCACCTGCATATTATGACTCTG
Regarding B2, in the data set with Aptx full-length WT, the Kd came to 190 nM.

B3: Crystallized duplex, strands A and C (dsDNA)
DNA 1: CCCTG
DNA 2: TATCGGAATCAGGG
modifications: 5'-OH and 3'-OH on both strands
As to B3, the binding result in data set [1] is “binds”.
